# Reference: patent US20120213763A1 (COUNCIL OF SCIENTIFIC AND INDUSTRIAL RESEARCH, published 2012)
# Changes are numbered by the printed parent chain. Where “and” joins values, the source holds several entries; their conditions need not be identical. Equal values may be shown once.
# T1: PEGylated SK C-383 Cys (SEQ ID NO 492), Cys at C + 1 position of SK 1-383, G3
# T1 chain: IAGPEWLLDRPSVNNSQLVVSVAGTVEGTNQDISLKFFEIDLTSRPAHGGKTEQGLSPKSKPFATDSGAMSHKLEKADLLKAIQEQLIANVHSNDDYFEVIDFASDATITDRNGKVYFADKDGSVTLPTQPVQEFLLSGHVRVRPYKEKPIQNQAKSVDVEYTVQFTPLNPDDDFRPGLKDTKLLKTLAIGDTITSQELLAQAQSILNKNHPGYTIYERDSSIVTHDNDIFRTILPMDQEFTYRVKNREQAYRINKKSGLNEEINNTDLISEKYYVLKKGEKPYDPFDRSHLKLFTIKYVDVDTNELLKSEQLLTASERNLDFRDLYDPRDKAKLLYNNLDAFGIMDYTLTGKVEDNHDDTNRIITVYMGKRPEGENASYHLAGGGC
# T2: PEGylated SK D173C (SEQ ID NO 39)
# T2 chain: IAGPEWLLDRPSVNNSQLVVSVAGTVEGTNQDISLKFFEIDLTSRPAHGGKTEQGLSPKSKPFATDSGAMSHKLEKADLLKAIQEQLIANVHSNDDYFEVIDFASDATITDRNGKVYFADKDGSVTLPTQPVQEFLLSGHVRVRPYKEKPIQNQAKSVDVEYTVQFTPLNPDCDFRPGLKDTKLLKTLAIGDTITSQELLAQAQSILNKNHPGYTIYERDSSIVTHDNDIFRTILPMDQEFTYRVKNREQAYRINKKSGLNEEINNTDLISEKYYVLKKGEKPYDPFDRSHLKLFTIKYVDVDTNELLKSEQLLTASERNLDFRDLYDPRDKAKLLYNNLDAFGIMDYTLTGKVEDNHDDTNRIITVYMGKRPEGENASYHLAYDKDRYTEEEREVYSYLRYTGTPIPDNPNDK
# T3: PEGylated SK N255C (SEQ ID NO 46)
# T3 chain: T2 chain with C173D, N255C
# T4: bi-pegylated NC 1-414 (SEQ ID NO 491), Cys at N - 1 and at C + 1 position in SK
# T4 chain: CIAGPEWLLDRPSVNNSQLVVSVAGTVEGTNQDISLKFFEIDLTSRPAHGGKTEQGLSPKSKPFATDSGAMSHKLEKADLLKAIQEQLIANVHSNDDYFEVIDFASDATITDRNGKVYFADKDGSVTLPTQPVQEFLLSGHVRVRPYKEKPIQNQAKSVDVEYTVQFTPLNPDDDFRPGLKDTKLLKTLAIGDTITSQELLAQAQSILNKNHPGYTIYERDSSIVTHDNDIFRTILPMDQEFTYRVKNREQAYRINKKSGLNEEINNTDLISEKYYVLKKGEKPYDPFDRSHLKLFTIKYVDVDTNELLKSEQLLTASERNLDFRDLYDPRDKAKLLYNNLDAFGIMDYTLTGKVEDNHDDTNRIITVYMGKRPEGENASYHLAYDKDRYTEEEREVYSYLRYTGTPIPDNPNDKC
# B1: human plasminogen (HPG) (protein)
# chain: KVYLSECKTGNGKNYRGTMSKTKNGITCQKWSSTSPHRPRFSPATHPSEGLEENYCRNPDNDPQGPWCYTTDPEKRYDYCDILECEEECMHCSGENYDGKISKTMSGLECQAWDSQSPHAHGYIPSKFPNKNLKKNYCRNPDRELRPWCFTTDPNKRWELCDIPRCTTPPPSSGPTYQCLKGTGENYRGNVAVTVSGHTCQHWSAQTPHTHNRTPENFPCKNLDENYCRNPDGKRAPWCHTTNSQVRWEYCKIPSCDSSPVSTEQLAPTAPPELTPVVQDCYHGDGQSYRGTSSTTTTGKKCQSWSSMTPHRHQKTPENYPNAGLTMNYCRNPDADKGPWCFTTDPSVRWEYCNLKKCSGTEASVVAPPPVVLLPDVETPSEEDCMFGNGKGYRGKRATTVTGTPCQDWAAQEPHRHSIFTPETNPRAGLEKNYCRNPDGDVGGPWCYTTNPRKLYDYCDVPQCAAPSFDCGKPQVEPKKCPGRVVGGCVAHPHSWPWQVSLRTRFGMHFCGGTLISPEWVLTAAHCLEKSPRPSSYKVILGAHQEVNLEPHVQEIEVSRLFLEPTRKDIALLKLSSPAVITDKVIPACLPSPNYVVADRTECFITGWGETQGTFGAGLLKEAQLPVIENKVCNRYEFLNGRVQSTELCAGHLAGGTDSCQGDSGGPLVCFEKDKYILQGVTSWGLGCARPNKPGVYVRVSRFVTWIEGVMRNN
# Experiments:
# [1] = biological target: PEG Variants of SEQ ID NO 23 (PEGylated Cysteine variants of fibrin domain fusion form of SK)
# [2] = biological target: PEG Variants of SEQ ID NO 24 (PEGylated Cysteine variants of fibrin domain fusion form of SK)
# [3] = biological target: T1, PEGylated SK C-383 Cys (SEQ ID NO 492), …
# [4] = biological target: T2, PEGylated SK D173C (SEQ ID NO 39)
# [5] = biological target: T3, PEGylated SK N255C (SEQ ID NO 46)
# [6] = biological target: T4, bi-pegylated NC 1-414 (SEQ ID NO 491), …
protein,measurement,setting,value
B1,Km,[1],0.24 µM and 0.63 µM
same,Km,[2],0.48 µM
same,Km,[3],0.4 µM
same,Km,[4],0.4 µM
same,Km,[5],0.4 µM
same,Km,[6],0.42 µM
